B1: 4 (protein, listed as Lactobacillus buchneri)
chain: MAKVITLEEHFSSQKLGQKMAEVLPKRPIGNVSPKMQDYMQRSLPPEAELEDVTGSRIQWMDQHQISMQILSYGNQNPQNSDPKFAVELTKLANDELAKAVAKAPDRFRAFASLPVSHPTDAAAELKRGVEELGFKGAMLVRPTSQAHPFFDDPFYLPIFEAAANLNVPVYLHPSFPDSQIIDYYYSNGPWDDKVSGILGTAGYGWHTDVGIQTVRLLLSGVFEKYPNLKLISGHWGEFASFALERMDQVMYPETNLSEPISKIYRDHVYVTPSGILTEPQLKFVKDEVGIEHLLYSIDYPYIKPENSGSFIESSPLTDEEKELFAHGNAEKLLQL
B2: 79 (protein)
chain: MATTTTPSTLIATLESHLTPTLAFTSPTTSPTQPALHLIPPTTLTKLRNLGPGRVKDMHMLGHSRQIISHIPVAAPPQICSRFNDAIHAATMTNTAKFSVLAVLPTDGMEAAKELARCVSKYRFVGGVIGLNRGLRINGEGWEELWGLAERLRIPIMFREMWPLAFEIVDYQHHLPYSALGPILTQLHTSHTSSPLPLVRLYLSSVFDHYPSLRLVLAHPGSLPSLVPRIESLINSIPATDKPKRSFLDVWQHNIYLTTADAQDMSSLRALLEQIPVDRVLYASNYPFEERGNELMNELRESEFLTNIEWERVAWVNAETLFNLKEAGTKEARQLTTIPSSRS
modifications: Pyrenophora teres
B3: 83 (protein, listed as Mycobacterium rhodesiae)
chain: MALIALEEHYAWSPVSAGNVVGSWLETHNVTAYQRLYDRGPLRLEQMDAAGIDFQILSLFDPGVQDDDDTARAVENARRANDDLAETVRAAPDRFGGFATLAPQDPDAAAAELERAVGELGLVGGLINGHTHGRYLDDPAYLGLFECAQRLGVPIYLHPTTPHPAVMDAWFAPYVKDGLHLASWGFAAETGTHALRLIYSGLFDTFPRLQMILGHLGEMLPYAAYRIDRYYGLGGGDDGGRLARLPSEYLRDNFHVTTSGNFNPVAFACALDVMGPDRLMFSVDYPMDDNVTGAEFLRNLEVDDDVRRKVAGENALQLFGDKIPRR
B4: 88 (protein, listed as Starkeya novella)
chain: MARKIALEEHFTTPELAGKYVARPTQSDALFADIERRLADFDELRLEMMDRAEIDLMVLSVTTPGVQGVRDTGEAIRLARGANDFLAREVQKRPSRYAGFAHLAMQDAEAAATELERAVRELGFRGALINGQTNGHYLDEDQYAPFWERVQELDVPVYLHPGNMADSPAMFAHRPELGGPIWAWTAETAAHALRLVFGGTFTRFPGAKVILGHMGETLPFLLWRLDSRREFDLGEKLAPDALPSAIIKRNIAVTTSGVCDPAPLVAALQALSDDNVMFSVDYPYEDPQLASKFIETAPIGEETRAKVCHGNAERLLGL
B5: 86 (protein, listed as Sphingopyxis alaskensis)
chain: MALGASVASREASAQMAKAPMRKIATEEAFATPELAKAWLEIARSEPNSSLDIPTGILSIFDNPRPGSNQDRFRRQLLDVDAERIRDMDEAGVDMQLLSVTIPGVQIFEPARAGELAVTTNDHLAAAIARRPTRFAGLACFAPHDPVQATREMERAVNALGLKGFIVNSHTQDLYLDDPRFAPVLEAAQSLDCPIYLHPRAPSNGMAAPFRDYSMGGSIWGFGVEAGTHAVRMILSGVFDRYPRLRIVLGHMGEALPFWMWRLDHMAARRAKDGRMKPLSLAPSEYFKRNFAVTTSGFESPDVLDLVIKVAGIENIMWAIDYPYESSRDAVTFIEGADLTASQRASIFHRNAVRHFRLS
B6: 82 (protein, listed as Rhodopseudomonas palustris)
chain: MAQNETPVIAIEEHYWDPEMVARFPAGENASPFSTLLTELGDVRLRAMDEAGIDVQVLSHGAPAAQKLPPDVAPELTRRVNDRLAEACARFPNRFAAFAALPTPAPEAAARELERCVRDLGFKGAMIHGLTNGLFIDDKRFWPIFEVAEKLDVPIYLHPSVPHADVTRYYYDDYAREFPTVIRPAWGFTVETATQAIRLILSRALESYPRLQIILGHLGETLPFLLWRINQALARPGQTPLDFRKQFCDHFHVTTSGFFSTPALICTMLELGIDRIMFAVDYPYVVNRDGTDWVQQLQISPDDKRKLVGGNARRLLKL
B7: 84 (protein, listed as Mycobacterium rhodesiae)
chain: MASLIALEEHYAWDPASEGNVVATWLRANNGVAYDRLYDRGPLRIEQMDAAGIDFQILSLFDPGVQDEVDAVRAVDLARRANDDLAESVRANPSRFGGFATLATQQPDAAVAEFDRAVTELGLVGGLINGHCQGRYLDDPAYEALFSRAEALGAPIYLHPTTPHPAVMDAWFAPYVGDGLHLASWGFAAETGTHVLRLIYSGLFDKFPRLQMIIGHLGEMLPFAAYRIDRYYGLGGGGTGHTLQHLPSDYLRNNFHVTTSGNFCSPALDCTLDVMGADRVMFSVDYPMDDNQTGADFLASYPMDDTNRRKVASENALRLFGDRIPAALRN
B8: 90 (protein)
chain: MAATIDRVLYLGNATQRRYTSATVSVPRIFGKVALEEHVGTSIWAKYNLTPPANAVVGVLNRPPTLPNTLDTIARLDDINGRLSSMNHSGIGYVIVSLSSPGIQGVHDTALAIKFSTDINDELYLKYANAYPDKFAFFATVPMQDPVAAASELERAVSLLGAKGAAINGYTDIGPPGNSTTRYLDDPINAPFWSKVAALNVPIYLHPRAPPPSQQLVYNYPNNSLSAYPGLVTGGFAYGAETAVHALRLMLSGLFDTHPNIQIILGHAAEGLPFLIHRSDTQLAAEVPGTNGPYKRPLRYYLRNNFYATLSGVRRLSTTQCTLAEMGEERVLFSVDYPFQSNEDAADWFDGVEGMSVETKRKVARGNARRLFNLTVDLDERQIDGDFM
modifications: Pyrenophora tritici-repentis
B9: 78 (protein, listed as Marinobacter adhaerens)
chain: MALIDLHAHAPHPDYYDQHPHWGPAFELQSDGDIKLRVGHWVLSLGAPERKQALREAHARGETLDVQEYMAKWRDPEHRLASMDAAGQNAQVLSVPSHCYMYWAEPEFGVPFAKKVNDSLAEYCSAAPDRLMFWAHAPLNVPKEAAKEIRRACTELGAKGLVAGGSNFGGLEFDSPEMDPVWEALCDLDLPMFVHGYNQSVTWGEEANTDRYETTAIVGMNYDESKCFWYMINGGVFDRFPNLKVYITHGGGFVPYQLGRMAQTNPNLDTYHNKKPFLEYLKNFYFDVELHEVPMRQAMVEVIGADRVLYGSNFGGSDAVRHDLTDDLKLSQEDLDKIRWKNACDLLHLDPNKLGKVRG
B10: 85 (protein, listed as Maritimibacter alkaliphilus)
chain: MAADRKPGLVSVEEGFMIPEVVAELSRIAGGVPSMKSGPIAGPFMDDLLDIGKGRVARMDADGVAVQILALAAPGVQKFDPDTALALSRLTNDRLAEAIAAHPARFGGLAAAPPQAAREGAKELDRAITTLGLNGLIVNSHTNDLYLDDPSFWPLLEAAEALDVPVYLHPREPAAGIEGGLMAMTGFTVGWAYAVETGTHLLRMIAAGVFDRFPRLRIVLGHLGEMIPFMLDRIDNRYPFEMGVTGAKPLPRKPSDYFRDHVTVATSGMNFNAPMRAAIEVLGADKVMFAADYPMERQDEEVAKFAALDLTPDERKRIGEDNARRVFGL
B11: 87 (protein, listed as Novosphingobium sp.)
chain: MASDIATAADLQTGGRQGYLRIATEEAFATRDQIDVYLRMVRDGTADRGMTSLWGFYAQSPSARATQIIERLLDLGEQRLADMDAAGIDKAVLALTSPGVQPLLDMEEARRIAGNANDRLAERCAAHPDRFIGMTAVAPQDPQWSAREILRGATQLGFKGVQINSHTQGRYLDEPFFDPIFRALGDVGQPLYIHPGTPPDSMIGPLLDAGLDGAIYGFGVETGMHLLRLITAGIFDRYPDLQIMVGHMGEALPYWLYRLDYMHQAGIRSQRYERMRPLKRTIAGYFRSNVLVTCSGMAWEPAIQFARQVMGEDRVMYAMDYPYQYEADEVRALDVMDLSPESKRKFFQTNAERWFDL
B12: 80 (protein, listed as Cordyceps militaris)
chain: MAAASTPVVVDIHTHMYPPSYIAMLEKRQTIPLVRTFPQADEPRLILLSSELAALDAALADPAAKLPGRPLSTHFASLAQKMHFMDTNGIRVSVISLANPWFDFLAPDEAPGIADAVNAEFSDMCAQHVGRLFFFAALPLSAPVDAVKASIERVKNLKYCRGIILGTSGLGKGLDDPHLLPVFEAVADAKLLVFLHPHYGLPNEVYGPRSEEYGHVLPLALGFPMETTIAVARMYMAGVFDHVRNLQMLLAHSGGTLPFLAGRIESCIVHDGHLVKTGKVPKDRRTIWTVLKEQIYLDAVIYSEVGLQAAIASSGADRLMFGTDHPFFPPIEEDVQGPWDSSRLNAQAVIKAVGEGSSDAAAVMGLNAVRVLSLKAE
B13: 89 (protein, listed as Erwinia billingiae)
chain: MATNRRDFLKNATAVMAGSTVFAGSSHFASAAAVEPAAVQPPRRIIALEEHFMLPEFVGYLHETQQNLRNGLVDKVVTPLSDFGKGRLEIMDKNGVDFAVLSLSGPGVQAEPDRVKAVRLARYANDKLATEMQKNPRRYGGFAHLAMQDPLAAANELERCVKQLHMQGGMINGETDGLYLDDRRYDVFWERVEALNVPIYIHPGNPPDYPHMFAGHPEMWGPVWSWAVETCSHALRLIFSGTFDRYPGARVILGHMGETLPIQLWRLDSRYQIANQTFAIKHPPSWYAKKNITITTSGVCNDAALRCALDSMGSENVMFSIDYPFESTEIAVNWLKTANITEQERNAVAWGNATSILRLGA
B14: 81 (protein, listed as Verticillium dahliae)
chain: MAASTKPKVVDIHTHMYPPSYIDILTSRTAIPVVRTFPQAADPRLILLDAEQQALDAALQDPTAKPPGRPLTSHYASLDQKIHFMDTHSIDISVVSLANPWLDFIEPKEAAATARSVNDEFEAMCASQPGRLFFFAALPLTAPLPALLEAVRHVAELEHCRGVILGTSGLGSGLDDPELVPVLEAVAAAALTVFLHPHYGLPNDVWGPRASAEYGHVLPLALGFPMETTIAVARMYLAGVFDRVPALRMLLAHSGGTLPFLAGRIESCILHDGQLVAEGKVGAARRTIWDVLREQVYLDAVIYSEIGLKAAIAASGGADRLMFGTDHPFFPPLGTDEQAKKESRINAGGSRPMITGNAMINGHGGLCNHITQSDYQDVVL
B15: 91 (protein, listed as Botryotinia fuckeliana)
chain: MASFVCNFGKAALATLLLTPSISAADYTPQETVLNSGRPTFYDASTSIPGKIALEEHVGNDLLNGLYTVPYYPNTNEPQYSDSVYIADVGEKMLDIPSRIANMDAANISISVLTFGGPGIQGVFNATYATYAAGYVNDYLYKNYKNNANYTGRFEFWCSNALQEPSKAATELERCVKELGGVGSFVGGYTNNGGINGTANDIVYLDDPSMEPFLEKVVELDVPIYLHPRMPAPSQLLSVKGYEFLGSSPWGFSSETGAHALRLMVSGTLDKYPTLKIVLGHCGEGLPFFLPRIDQRLRHFKKELFNNTLTMEEYWLRNFYVTTAGVQDAGTLVDTIKRTGEDRVMFSVDYPFEDTVEIAGWFDRLEMNTLTKTKLAYENAKALLKLTCYVDAEKRPRIFNKHHVDDIIKHTHSPCIWTLFH

Assay: Saturation mutagenesis of SEQ ID NO:109: dicamba decarboxylation activity of point mutants (CO2 released), fold of backbone (Tables 7, 8, Megatable 1)
Details: decarboxylation activity (CO2 released) of point mutant vs unmutated backbone protein; backbone SEQ ID NO: 109

Compared with B1, B2 is lower in “Fold Activity” value: 1 fold for the first, 0.9 fold for the second.

Going from B3 to B4, the “Fold Activity” value falls from 1.9 fold to 1.3 fold.

Compared with B5, B6 is lower in “Fold Activity” value: 1.4 fold for the first, 0.9 fold for the second.

Going from B7 to B8, the “Fold Activity” value rises from 1 fold to 1.7 fold.

Compared with B9, B10 is higher in “Fold Activity” value: 1.1 fold for the first, 1.4 fold for the second.

Going from B11 to B12, the “Fold Activity” value falls from 1.4 fold to 0.8 fold.

First: B13
Second: B14
The “Fold Activity” value of the first is higher: 3.1 fold for the first, 1.2 fold for the second.

With B15 the “Fold Activity” value was 1.6 fold.
